B1: RIgG1 (rabbit antibody made with SEQ ID NO 24 and SEQ ID NO 25) (antibody, V domains shown)
VH: QSVEESGGRLVTPGTPLTLTCTVSGIDLNRYSLTWVRQAPGKGLEWIGIVGGSGVTYYANWTKGRFTISKTSTTVDLKMTSLTTEDTATYFCARGSDRSAYAPDIWGPGTLVTISS
VL: ELDMTQTPSSVSAAVGGTVTINCQSSQSVYSNNYLAWYQQKPGQPPKLLLYQASKLASGVSSRFSGSGSGTHFTLTISGVQCDDAATYYCLGVYDDDADNAFGGGTELEILR
notes: Converted from scFv to whole IgG in vector pCEP6-WPRE, which carries an Fc part; The ELISA detected it with anti-hIgG-Fc; also called 2-19 (IgG form)
B2: Hz1 (humanized antibody made with SEQ ID NO 28 and SEQ ID NO 29) (antibody, V domains shown)
VH: EVQLVESGGGLVKPGGSLRLSCAASGIDLNRYSLTWVRQAPGKGLEWVGIVGGSGVTYYANWAKGRFTISRDSAKNSLYLQMNSLRAEDTAVYFCARGSDRSAYAPDIWGPGTLVTVSS
VL: DIQMTQSPSSLSASVGDRVTINCQSSQSIYSNNYLAWYQQKPGKPPKLLLYQASKLASGVPSRFSGSGSGTDFTLTISSLQPEDVATYYCLGVYDDDADNAFGGGTELEIKR
notes: Whole IgG from vector pCEP6-WPRE with an Fc part
B3: Hz2 (humanized antibody made with SEQ ID NO 30 and SEQ ID NO 31) (antibody, V domains shown)
VH: EVQLVESGGGLVQPGGSLRLSCAVSGIDLNRYSLTWIRQAPGKGLEWVAIVGGSGVTYYANWAKGRFTISRDDSKNTLYLQMNSLRAEDTAVYYCARGSDRSAYAPDIWGQGTLVTVSS
VL: DIQLTQSPSSLSASVGDRVTITCQSSQSIYSNNYLAWYQQKPGKAPKLLLYQASKLASGVPSRFSGSGSGTDFTLTISSLQPEDFATYYCLGVYDDDADNAFGQGTKVEIKR
notes: as for B2
B4: Hz2-F (antibody with SEQ ID NO 32 and SEQ ID NO 31) (antibody, human IgG1, L234A L235A, V domains shown)
VH: EVQLVESGGGLVQPGGSLRLSCAVSGIDLNRYSLTWIRQAPGKGLEWVAIVGGSGVTYYANWAKGRFTISRDDSKNTLYLQMNSLRAEDTAVYYCARGSDRSAYAPDIWGQGTLVTVSS
VL: DIQLTQSPSSLSASVGDRVTITCQSSQSIYSNNYLAWYQQKPGKAPKLLLYQASKLASGVPSRFSGSGSGTDFTLTISSLQPEDFATYYCLGVYDDDADNAFGQGTKVEIKR
notes: copies: 2 + 2
B5: Lu007 (SEQ ID NO 33, SEQ ID NO 34) (antibody, V domains shown)
VH: EVQLVESGGGLVQPGGSLRLSCAASGYDFTHYGMNWIRQAPGKGLEWVGWINTYTGEPTYAADFKRRFTFSLDTSKSTVYLQMNSLRAEDTAVYYCAKYPHYYGTSHWYFDVWGQGTLVTVSS
VL: DIQLTQSPSSLSASVGDRVTITCSASQDISNYLNWYQQKPGKAPKVLIYFTSSLHSGVPSRFSGSGSGTDFTLTISSLQPEDFATYYCQQYSTVPWTFGQGTKVEIKR
notes: Tested as a purified whole antibody, detected with anti-hIgG-Fc; also called variant ranibizumab; variant Lucentis

The term Kd denotes the concentration at which binding is half-saturated. One may read the koff as a measure of how fast the partners let go of each other. By kon is commonly meant the rate constant with which the complex forms.

The target in the experiment is T1, recombinant human VEGF165 (Sino biological) (human, UniProt P15692-4 27-191).
T1 construct: Sino Biological VEGF165 was used in the Octet assay
T1 sequence (P15692 other isoform, or with tags, fused parts or gaps limits assumed): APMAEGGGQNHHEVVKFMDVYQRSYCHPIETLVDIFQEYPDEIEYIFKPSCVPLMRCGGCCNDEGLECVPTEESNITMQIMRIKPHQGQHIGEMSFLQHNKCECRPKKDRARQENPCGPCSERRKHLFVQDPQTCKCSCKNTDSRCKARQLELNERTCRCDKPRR
The experiment in a line: Octet red96E BLI, VEGF165 amine-coupled on AR2G sensor, antibody as analyte, 30 C.
For the molecule B1, the Kd was 3.98 pM, the koff turned out to be 3.08e-06 s⁻¹ and the kon was found to be 775000 M⁻¹ s⁻¹.

Turning to B2, the dissociation constant (Kd) turned out to be 4.71 pM, the koff worked out at 3.22e-06 s⁻¹ and the on-rate constant (kon) came to 685000 M⁻¹ s⁻¹.

Turning to B3, the dissociation constant Kd is 1.93 pM, the koff was determined as 9.73e-07 s⁻¹ and the kon was found to be 505000 M⁻¹ s⁻¹.

In the case of B4, the Kd stood at 3.98 pM, the off-rate (koff) came to 3.08e-06 s⁻¹ and the kon is 775000 M⁻¹ s⁻¹.

As for B5, the dissociation constant (Kd) is 12.2 pM, the off-rate (koff) amounted to 2.89e-06 s⁻¹ and the kon came out at 237000 M⁻¹ s⁻¹.
